# Results from publication PMC6773860.
# Tests used:
# [1] = molecular target: human JAM-A on the surface of Lec2-JAM-A cells (human) (UniProt Q9Y624); test: single-virus force spectroscopy (FD-based AFM); virions on the AFM tip; living Lec2-JAM-A cells co-cultured with fluorescent Lec2 cells; PeakForce QNM mode, 37 °C, culture medium, 5% CO2; no glycan added
# [2] = molecular target: His6-tagged JAM-A (junctional adhesion molecule A) (UniProt Q9Y624); test: single-virus force spectroscopy (FD-based AFM); virions or ISVPs covalently linked by a PEG27 spacer to the AFM tip; His6-JAM-A immobilised on an NTA-Ni2+ gold surface; virus buffer (150 mM NaCl, 15 mM MgCl2, 10 mM Tris pH 7.4), ~25 °C; single bonds fitted with the Bell-Evans model; no glycan added
# [3] = molecular target: human JAM-A on the surface of Lec2-JAM-A cells (human) (UniProt Q9Y624); test: single-virus force spectroscopy (FD-based AFM); as a4, the same area scanned again after adding 1 mM LNnT to the culture medium
# [4] = molecular target: human JAM-A on the surface of Lec2-JAM-A cells (human) (UniProt Q9Y624); test: single-virus force spectroscopy (FD-based AFM); as a4, the same area scanned again after adding 1 mM Neu5Ac or 1 mM LSTa to the culture medium; also on cells treated before with neuraminidase (40 mUnit/mL, 1 h)
# [5] = molecular target: His6-tagged JAM-A (junctional adhesion molecule A) (UniProt Q9Y624); test: single-virus force spectroscopy (FD-based AFM); as a1, after injection of 1 mM sialylated glycan (Neu5Ac or LSTa)
# [6] = molecular target: His6-tagged junctional adhesion molecule A (UniProt Q9Y624); test: single-virus force spectroscopy (FD-based AFM); virus particles on the AFM tip through a PEG27 linker; His6-JAM-A on an NTA-Ni2+ gold model surface; virus buffer, ~25 °C; after adding 1 mM Neu5Ac; koff of the single bond from a Bell-Evans fit of the DFS plot
# [7] = molecular target: His6-tagged junctional adhesion molecule A (UniProt Q9Y624); test: single-virus force spectroscopy (FD-based AFM); virus particles on the AFM tip through a PEG27 linker; His6-JAM-A on an NTA-Ni2+ gold model surface; virus buffer, ~25 °C; after adding 1 mM LSTa; koff of the single bond from a Bell-Evans fit of the DFS plot
# [8] = molecular target: His6-tagged junctional adhesion molecule A (UniProt Q9Y624); test: single-virus force spectroscopy (FD-based AFM); virus particles on the AFM tip through a PEG27 linker; His6-JAM-A on an NTA-Ni2+ gold model surface; virus buffer, ~25 °C; after adding 1 mM LNnT (no sialic acid); koff of the single bond from a Bell-Evans fit of the DFS plot
substance,measurement,setting,value
"reovirus σ1 attachment protein of mutant strain T3SA− (P204L), on purified virions (from UniProt P03528 1-455) (natural protein)",frequency of adhesion events,[1],4%
same,koff,[2],0.05 s⁻¹
same,specific binding force,[2],20 to 130 pN
"reovirus σ1 attachment protein of strain T3SA+, on purified virions (from UniProt P03528 1-455) (natural protein)",binding frequency after 1 mM LNnT,[3],3.9%
same,binding frequency after 1 mM LSTa,[4],4.8%
same,binding frequency after 1 mM Neu5Ac,[4],4.9%
same,"increase in binding after Neu5Ac against before, neuraminidase-treated cells",[4],20%
same,binding frequency before LNnT,[1],3.8%
same,binding frequency before LSTa,[1],3.8%
same,binding frequency before Neu5Ac,[1],3.9%
same,density of adhesion events,[1],3.5%
same,rupture force,[1],50 to 400 pN
same,simultaneous virus-receptor bonds,[1],< 4
same,overall binding force with 1 mM Neu5Ac or LSTa,[5],< 400 pN
same,simultaneous virus-receptor bonds in the presence of α-SA,[5],< 3
same,koff,[2],0.04 s⁻¹
same,specific binding force,[2],20 to 130 pN
reovirus σ1 attachment protein on T3SA+ infectious subvirion particles (from UniProt P03528 1-455) (natural protein),koff,[6],0.18 s⁻¹
reovirus σ1 attachment protein on T3SA- virions (P204L) (from UniProt P03528 1-455),koff,[7],0.24 s⁻¹
same,koff,[8],0.07 s⁻¹
same,koff,[6],0.08 s⁻¹
